Paper doi:10.1101/2021.04.18.440036 (bioRxiv, 2021)

Target: protective antigen (PA) prepore (Bacillus anthracis V770-NP1-R (ATCC …, UniProt P13423))
Assay: cryo-EM structure

Sequence of protective antigen (PA) prepore (Bacillus anthracis V770-NP1-R (P13423 whole entry, looked up): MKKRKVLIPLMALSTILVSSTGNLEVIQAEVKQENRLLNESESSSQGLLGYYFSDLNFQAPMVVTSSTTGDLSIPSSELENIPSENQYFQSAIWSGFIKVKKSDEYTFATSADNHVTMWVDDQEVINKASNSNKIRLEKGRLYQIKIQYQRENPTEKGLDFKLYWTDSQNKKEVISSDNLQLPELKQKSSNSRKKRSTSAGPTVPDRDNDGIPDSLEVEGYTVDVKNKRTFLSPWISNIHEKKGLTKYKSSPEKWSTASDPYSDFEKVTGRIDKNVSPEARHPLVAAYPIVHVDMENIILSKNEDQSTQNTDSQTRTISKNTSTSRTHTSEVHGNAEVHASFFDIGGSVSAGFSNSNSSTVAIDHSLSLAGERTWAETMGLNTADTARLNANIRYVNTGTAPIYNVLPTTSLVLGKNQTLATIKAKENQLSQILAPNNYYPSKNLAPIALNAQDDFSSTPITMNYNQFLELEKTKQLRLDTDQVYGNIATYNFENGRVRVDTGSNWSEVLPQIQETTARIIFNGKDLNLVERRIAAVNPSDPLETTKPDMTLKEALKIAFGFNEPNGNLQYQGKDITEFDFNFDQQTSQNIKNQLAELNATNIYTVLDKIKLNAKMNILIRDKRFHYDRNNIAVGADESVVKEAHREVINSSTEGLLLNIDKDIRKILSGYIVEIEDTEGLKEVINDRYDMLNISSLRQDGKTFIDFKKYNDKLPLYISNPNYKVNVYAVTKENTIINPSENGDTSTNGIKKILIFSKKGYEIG

B1: cAb29 Fab (Fab, V domains shown)
VH: QVQLQQSGAELVKPGASVKMSCKASGYIFTNYNMHWVQQTPGQGLEWIGAIYPRTGDTSYNQKFKGKATLTADKSSSTAYMQLSSLTSEDSAVYYCARDGFAYWGQG
VL: DIQMTQTTSSLSASLGDRVTISCRASQDISNYLNWYQQKPDGTVKLLIYYTSRLHSEVPSRFSGSGSGTDYSLTISNLEEEDIATYFCQQGKTLPWTFGGG
binding result: binds
